Experimental data: paper PMC2908316 (2009)

Target: Gαo (Homo sapiens, UniProt P09471)
Experiment: flow cytometry protein interaction assay

Sequence of Gαo (P09471 2-354): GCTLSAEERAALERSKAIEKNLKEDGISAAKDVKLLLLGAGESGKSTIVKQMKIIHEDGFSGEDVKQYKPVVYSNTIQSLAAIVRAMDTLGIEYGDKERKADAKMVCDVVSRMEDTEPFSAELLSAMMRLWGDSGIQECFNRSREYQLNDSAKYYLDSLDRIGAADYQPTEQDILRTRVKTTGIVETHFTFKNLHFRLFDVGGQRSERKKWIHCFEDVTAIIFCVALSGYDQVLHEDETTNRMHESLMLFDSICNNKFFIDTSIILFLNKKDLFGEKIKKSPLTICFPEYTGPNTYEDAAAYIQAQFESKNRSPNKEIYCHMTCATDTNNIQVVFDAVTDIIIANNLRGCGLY

Kd	Binder
< 100 nM	RGS8 (protein) MAALLMPRRNKGMRTRLGCLSHKSDSCSDFTAILPDKPNRALKRLSTEEATRWADSFDVLLSHKYGVAAFRAFLKTEFSEENLEFWLACEEFKKTRSTAKLVSKAHRIFEEFVDVQAPREVNIDFQTREATRKNLQEPSLTCFDQAQGKVHSLMEKDSYPRFLRSKMYLDLLSQSQRRLS
< 100 nM	RGS7 (protein) MAQGNNYGQTSNGVADESPNMLVYRKMEDVIARMQDEKNGIPIRTVKSFLSKIPSVFSGSDIVQWLIKNLTIEDPVEALHLGTLMAAHGYFFPISDHVLTLKDDGTFYRFQTPYFWPSNCWEPENTDYAVYLCKRTMQNKARLELADYEAESLARLQRAFARKWEFIFMQAEAQAKVDKKRDKIERKILDSQERAFWDVHRPVPGCVNTTEVDIKKSSRMRNPHKTRKSVYGLQNDIRSHSPTHTPTPETKPPTEDELQQQIKYWQIQLDRHRLKMSKVADSLLSYTEQYLEYDPFLLPPDPSNPWLSDDTTFWELEASKEPSQQRVKRWGFGMDEALKDPVGREQFLKFLESEFSSENLRFWLAVEDLKKRPIKEVPSRVQEIWQEFLAPGAPSAINLDSKSYDKTTQNVKEPGRYTFEDAQEHIYKLMKSDSYPRFIRSSAYQELLQAKKKSGNSMDRRTSFEKFAQNVGRNIPIFPCHKNCTPTLRASTNLL
< 100 nM	RGS16 (protein) MCRTLAAFPTTCLERAKEFKTRLGIFLHKSELGCDTGSTGKFEWGSKHSKENRNFSEDVLGWRESFDLLLSSKNGVAAFHAFLKTEFSEENLEFWLACEEFKKIRSATKLASRAHQIFEEFICSEAPKEVNIDHETHELTRMNLQTATATCFDAAQGKTRTLMEKDSYPRFLKSPAYRDLAAQASAASATLSSCSLDEPSHT
< 100 nM	RGS4 (protein) MCKGLAGLPASCLRSAKDMKHRLGFLLQKSDSCEHNSSHNKKDKVVICQRVSQEEVKKWAESLENLISHECGLAAFKAFLKSEYSEENIDFWISCEEYKKIKSPSKLSPKAKKIYNEFISVQATKEVNLDSCTREETSRNMLEPTITCFDEAQKKIFNLMEKDSYRRFLKSRFYLDLVNPSSCGAEKQKGAKSSADCASLVPQCA
